In US20260193348A1 (ANTENGENE BIOLOGICS, published 2026):

Experiments:
GPRC5D on MM.1S cells [1] = biological target: T1, GPRC5D on MM.1S cells (human, UniProt Q9NZD1 1-345); experiment: FACS on MM.1S cells
T1 construct: whole, on cells; MM.1S is called a GPRC5D positive expressed cell line and human multiple myeloma cells; also called G-protein coupled receptor family C group 5 member D
Protocol: To evaluate the binding affinity of the generated chimeric bispecific antibody to T cells, the isolated CD3⁺ T cells were stained by antibodies and the binding affinity was determined by FACS analysis. The protocol of FACS analysis is described as follows: [0785] (a) CD3⁺ T cells were isolated from normal donors. [0786] (b) The isolated CD3⁺ T cells were washed by Staining Buffer (PBS+1% BSA) in round bottom 96-well plate. […] (c) Antibody dilutions were added to each well and mixed with the CD3+ T cells, incubated at 4 degrees for 1 hour. […] (d) Cells were spined at 300 g for 3 minutes, then the supernatants were discarded. [0789] (e) Cells were washed with Staining Buffer. [0790] (f) Step (d) was repeated, and the cells were incubated with secondary antibody in Staining Buffer for 0.5 hours at 4 degrees. [0791] (g) After incubation, step (d)-(e) were repeated. [0792] (h) Cells were resuspended in Staining Buffer and fluorescence signals were recorded by flow cytometry.
The binding affinities of the generated humanized Fab-scFv-Fab bispecific antibodies to MM.1S were evaluated by FACS analysis. The protocol for FACS analysis is identical to that described in Example 1.2, except that MM.1S were used in this example.

GPRC5D on MM.1S cells [2] = biological target: T1, GPRC5D on MM.1S cells; experiment: cell-based or functional assay
GPRC5D on MM.1S cells [3] = biological target: T1, GPRC5D on MM.1S cells; experiment: cell-based or functional assay; remark: listed apart in the source

T1 sequence (Q9NZD1 whole entry): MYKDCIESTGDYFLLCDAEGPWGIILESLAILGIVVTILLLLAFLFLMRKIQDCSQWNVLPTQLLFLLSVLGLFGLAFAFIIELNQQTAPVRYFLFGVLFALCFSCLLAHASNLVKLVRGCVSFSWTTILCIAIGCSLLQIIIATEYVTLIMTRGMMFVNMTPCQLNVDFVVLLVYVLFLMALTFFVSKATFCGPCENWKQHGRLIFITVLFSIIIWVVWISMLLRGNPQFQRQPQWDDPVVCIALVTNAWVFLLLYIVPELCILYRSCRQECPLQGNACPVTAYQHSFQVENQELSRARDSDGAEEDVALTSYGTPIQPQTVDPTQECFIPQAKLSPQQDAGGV

| Ratio of EC50 (relative to ATG-Bis-40E9) (GPRC5D on MM.1S cells [1]) [ratio] | Ratio of Top MFI (relative to ATG-Bis-40E9) (GPRC5D on MM.1S cells [1]) [ratio] | Ratio of EC50 (relative to ATG-Bis-40E9), luciferase assay on MM.1S (GPRC5D on MM.1S cells [3]) [ratio] | Ratio of Top RLU (relative to ATG-Bis-40E9), luciferase assay on MM.1S (GPRC5D on MM.1S cells [3]) [ratio] | Binder | Ratio of IC50 (relative to ATG-Bis-40E9), MM.1S cytotoxicity (GPRC5D on MM.1S cells [2]) [ratio] | Ratio of Top cytotoxicity (relative to ATG-Bis-40E9), MM.1S cytotoxicity (GPRC5D on MM.1S cells [2]) [ratio] |
| --- | --- | --- | --- | --- | --- | --- |
| 0.926 | 0.874 | 96.4 | 0.28 | Bis-40E9-L2H9 (bispecific antibody, Fab-scFv-Fab format with LALA mutations) heavy 1: not shown heavy 2: EVQLVQSGAEVKKPGASVKVSCKASGYTFTSYVIHWVRQAPGQGLEWMGYFNPYNDGTKYNEEFKGRVTLTSDKSTSTAYMELRSLRSDDTAVYYCARGGVRRYFDVWGQGTTVTVSSASTKGPSVFPLAPSSKSTSGGTAALGCLVKDYFPEPVTVSWNSGALTSGVHTFPAVLQSSGLYSLSSVVTVPSSSLGTQTYICNVNHKPSNTKVDKKVEPKSCGGGGSGGGGSEVQLVQSGAEVKKPGSSVKVSCKASGYTFSSYVIHWVRQAPGQCLEWMGYINPYSDVIKYNEKFKGRVTLTSDKSTSTAYMELSSLRSEDTAVYYCARESFYSYDGFAYWGQGTLVTVSSGGGGSGGGGSGGGGSGGGGSEIVLTQSPDFQSVTPKEKVTITCSASSSVSYMHWYQQKPDQSPKRLIYDTSKLASGVPSRFSGSGSGTDFTLTINSLEAEDAATYYCQQWSSNPPTFGCGTKVEIKGGGGSGGGGSDKTHTCPPCPAPEAAGGPSVFLFPPKPKDTLMISRTPEVTCVVVDVSHEDPEVKFNWYVDGVEVHNAKTKPREEQYNSTYRVVSVLTVLHQDWLNGKEYKCKVSNKALPAPIEKTISKAKGQPREPQVCTLPPSREEMTKNQVSLSCAVKGFYPSDIAVEWESNGQPENNYKTTPPVLDSDGSFFLVSKLTVDKSRWQQGNVFSCSVMHEALHNHYTQKSLSLSPGK light: DIQMTQSPSSLSASVGDRVTITCRASQDIGSNLNWLQQKPGKAIKRLIYATFGLDSGVPSRFSGSRSGTDFTLTISSLQPEDFATYYCQQYASFPYTFGGGTKVEIKRTVAAPSVFIFPPSDEQLKSGTASVVCLLNNFYPREAKVQWKVDNALQSGNSQESVTEQDSKDSTYSLSSTLTLSKADYEKHKVYACEVTHQGLSSPVTKSFNRGEC | 87.7 | 0.87 |
| 1.15 | 1.02 | 10.2 | 0.71 | Bis-40E9-L2H10 (bispecific antibody, Fab-scFv-Fab format with LALA mutations; copies: 1 + 1 + 2) heavy 1: not shown heavy 2: EVQLVQSGAEVKKPGASVKVSCKASGYTFTSYVIHWVRQAPGQGLEWMGYFNPYNDGTKYNEEFKGRVTLTSDKSTSTAYMELRSLRSDDTAVYYCARGGVRRYFDVWGQGTTVTVSSASTKGPSVFPLAPSSKSTSGGTAALGCLVKDYFPEPVTVSWNSGALTSGVHTFPAVLQSSGLYSLSSVVTVPSSSLGTQTYICNVNHKPSNTKVDKKVEPKSCGGGGSGGGGSEVQLVQSGAEVKKPGSSVKVSCKASGYTFSSYVIHWVRQAPGQCLEWMGYINPYNDVIKYNEKFKGRVTLTSDKSTSTAYMELSSLRSEDTAVYYCARDSYYSYEAFAYWGQGTLVTVSSGGGGSGGGGSGGGGSGGGGSEIVLTQSPDFQSVTPKEKVTITCSASSSVSYMHWYQQKPDQSPKRLIYDTSKLASGVPSRFSGSGSGTDFTLTINSLEAEDAATYYCQQWSSNPPTFGCGTKVEIKGGGGSGGGGSDKTHTCPPCPAPEAAGGPSVFLFPPKPKDTLMISRTPEVTCVVVDVSHEDPEVKFNWYVDGVEVHNAKTKPREEQYNSTYRVVSVLTVLHQDWLNGKEYKCKVSNKALPAPIEKTISKAKGQPREPQVCTLPPSREEMTKNQVSLSCAVKGFYPSDIAVEWESNGQPENNYKTTPPVLDSDGSFFLVSKLTVDKSRWQQGNVFSCSVMHEALHNHYTQKSLSLSPGK light: DIQMTQSPSSLSASVGDRVTITCRASQDIGSNLNWLQQKPGKAIKRLIYATFGLDSGVPSRFSGSRSGTDFTLTISSLQPEDFATYYCQQYASFPYTFGGGTKVEIKRTVAAPSVFIFPPSDEQLKSGTASVVCLLNNFYPREAKVQWKVDNALQSGNSQESVTEQDSKDSTYSLSSTLTLSKADYEKHKVYACEVTHQGLSSPVTKSFNRGEC | 18.4 | 0.96 |
